Reference: paper PMC7260724, “ABAS1 from soybean is a 1R-subtype MYB transcriptional repressor that enhances ABA sensitivity”

T1: GST-GmABAS1 (Glycine max/soja (soybean; the cloned …, UniProt A0A3Q9B5G2 1-289)
T1 sequence: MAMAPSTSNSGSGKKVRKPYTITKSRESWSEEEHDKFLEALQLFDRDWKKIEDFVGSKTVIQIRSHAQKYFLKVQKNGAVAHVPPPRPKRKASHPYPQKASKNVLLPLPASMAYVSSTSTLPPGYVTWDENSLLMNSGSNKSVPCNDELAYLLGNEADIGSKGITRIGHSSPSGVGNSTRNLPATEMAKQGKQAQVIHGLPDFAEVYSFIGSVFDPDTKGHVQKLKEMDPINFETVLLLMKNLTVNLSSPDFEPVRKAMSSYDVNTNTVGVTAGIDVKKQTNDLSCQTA

B1: Glyma.01G060300 native probe (dsDNA)
DNA 1: TGAAAAATCGTGTCAGTGTCGCCACGTG
DNA 2: CACGTGGCGACACTGACACGATTTTTCA
B2: Glyma.01G060300 native probe, 6-FAM (dsDNA)
DNA 1: TGAAAAATCGTGTCAGTGTCGCCACGTG
DNA 2: CACGTGGCGACACTGACACGATTTTTCA

Legend:
GST-GmABAS1 [1] = biological target: T1, GST-GmABAS1; assay: EMSA; 150 mM KCl, 10 mM Tris pH 7.4, 0.1 mM EDTA, 0.1 mM DTT, EDTA-free protease inhibitor; room temperature 20 min; 6% (non-competitive) or 10% (competitive) acrylamide gel in TBE; details: protein: recombinant; tags: N-terminal GST (pGEX-4T-1); label: none (SYBR Green stain); blunt
GST-GmABAS1 [2] = biological target: T1, GST-GmABAS1; assay: EMSA; 72 pmol protein, 10 pmol probe; 150 mM KCl, 10 mM Tris pH 7.4, 0.1 mM EDTA, 0.1 mM DTT, EDTA-free protease inhibitor; room temperature 20 min; 6% (non-competitive) or 10% (competitive) acrylamide gel in TBE; details: protein: recombinant; tags: N-terminal GST (pGEX-4T-1); blunt

Binder	binding result (GST-GmABAS1 [1])	binding result (GST-GmABAS1 [2])
B1	binds	
B2		binds
